From patent US20220324953A1 (JIANGSU HENGRUI MEDICINE, published 2022) come the findings set out here.

Sequences and labels used below:
B1: chimeric antibody Ch95 (antibody, human IgG1, kappa, V domains shown)
VH: EVLLQQSGPVLVKPGPSVKISCKASGFTFTNYDIHWVKQSHGKSLEWIGLVYPYNGGTAYNQKFKDKATLTFDTSSSTAYMELNSLTSEDSAVYYCARWGLIPGTTSYFDVWGTGTTVTVSS
VL: QIVLSQSPPILSASPGEKVTMTCRASSSVSYIHWYQQKPRSSPKPWIYATSNLASGVPARFSGSGSGTSYSLTISRVEAEDAATYYCQQWNSNPWTFGGGTRLEIKR
B2: chimeric antibody Ch164 (antibody, human IgG1, lambda, V domains shown)
VH: QVQLKQSGPGLVQPSQSLSITCTVSGFSLTTFGVHWIRQSPGKGLEWLGVIWRRGGTDYNAAFMSRLSITKDNSRSHVFFKMTSLQTDDSAIYYCARDGGFDYWGQGTTLTVSS
VL: QAVVTQESALTTSPGGTVILTCRSSIGAVTTSNYANWVQEKPDHLFTGLIGGTSNRAPGVPVRFSGSLIGDKAALTITGAQAEDDAMYFCALWYSTHYVFGGGTKVTVLG
B3: Hu95-41wk (antibody, human IgG1, kappa, V domains shown)
VH: EVQLVQSGAEVKKPGASVKVSCKASGFTFTNYDIHWVKQAPGQRLEWIGLVYPYNGGTAYNQKFKDKATLTFDTSASTAYMELSSLRSEDTAVYYCARWGLIPGTTSYFDVWGQGTTVTVSS
VL: EIVLTQSPATLSLSPGERATLSCRASSSVSYIHWYQQKPGQAPRPWIYATSNLASGIPARFSGSGSGTDYTLTISRLEPEDFAVYYCQQWNSNPWTFGGGTKVEIKR
B4: Hu95-42wk (antibody, human IgG1, kappa, V domains shown)
VH: B3 VH
VL: B3 VL with A42S, I57V, D69S
B5: Hu95-31wk (antibody, human IgG1, kappa, V domains shown)
VH: B3 VH with I48M, A68V
VL: B3 VL
B6: Hu95-51yk (antibody, human IgG1, kappa, V domains shown)
VH: B3 VH with K23R, D33A, I48M, N55T, A68V, L101M, T106N
VL: B3 VL
B7: Hu95-21wk (antibody, human IgG1, kappa, V domains shown)
VH: B3 VH with K38R, K67R
VL: B3 VL
B8: chimeric antibody Ch147 (antibody, human IgG1, kappa, V domains shown)
VH: EVQLVESGGGLVQPEGSLKLSCAASGFSFNTYAMNWVRQAPGKGLEWVARIRTKSNNYATYYADSVKDRFTISRDDSESMLYLQMNNLKTEDTAMYYCVETGFAYWDQGTLVTVSA
VL: QIVLTQSPAIMSASPGEKVTITCSASSSVSYMHWFQQKPGTSPKLWIYSTSNLASGVPARFSGSGSGTSYSLTISRMEAEDAATYYCQQRSSYPLTFGAGTKLELKR

Positions count from the first letter of the chain named.

T4 sequence (chain, as listed by the source limits assumed): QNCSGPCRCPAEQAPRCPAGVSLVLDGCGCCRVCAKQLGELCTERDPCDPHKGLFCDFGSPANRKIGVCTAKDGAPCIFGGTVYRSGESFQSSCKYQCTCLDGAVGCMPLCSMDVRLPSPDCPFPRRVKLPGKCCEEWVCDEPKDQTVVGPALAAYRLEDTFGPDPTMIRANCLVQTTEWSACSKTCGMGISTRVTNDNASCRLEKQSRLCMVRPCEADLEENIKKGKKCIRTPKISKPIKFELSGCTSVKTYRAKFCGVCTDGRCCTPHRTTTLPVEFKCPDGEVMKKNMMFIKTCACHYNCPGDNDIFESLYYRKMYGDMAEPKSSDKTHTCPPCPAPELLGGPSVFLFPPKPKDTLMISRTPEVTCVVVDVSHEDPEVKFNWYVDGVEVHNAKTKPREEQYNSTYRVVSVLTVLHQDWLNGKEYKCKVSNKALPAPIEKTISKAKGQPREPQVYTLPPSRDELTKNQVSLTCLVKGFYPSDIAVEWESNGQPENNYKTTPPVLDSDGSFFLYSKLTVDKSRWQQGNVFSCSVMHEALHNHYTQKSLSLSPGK

The target of one assay is T1, mouse CTGF (antigen of the Biacore assay) (mouse, UniProt P29268 26-348).
T1 construct: also called mouse CTGF protein
T1 sequence (looked up): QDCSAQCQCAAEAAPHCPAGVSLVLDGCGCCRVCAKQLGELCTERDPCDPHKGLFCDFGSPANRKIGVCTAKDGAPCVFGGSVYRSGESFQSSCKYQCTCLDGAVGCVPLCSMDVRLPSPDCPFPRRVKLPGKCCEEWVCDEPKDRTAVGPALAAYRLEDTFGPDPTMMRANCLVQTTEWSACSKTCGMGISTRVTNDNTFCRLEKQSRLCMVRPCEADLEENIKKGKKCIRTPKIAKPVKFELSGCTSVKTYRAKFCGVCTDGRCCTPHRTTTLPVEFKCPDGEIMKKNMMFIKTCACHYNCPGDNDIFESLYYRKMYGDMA
Kind of assay: Biacore, antibody captured on Protein A, mouse CTGF in flow, 1:1 fit. From the text: (§1) A certain amount of each of the test antibodies was affinity-captured with Protein A biosensor chip (Cat. # 29127556, GE), and then a certain concentration of human or mouse CTGF was allowed to flow through the surface of the chip. The reaction signals were detected in real time with Biacore instrument to generate a binding and dissociation curve. After the dissociation was completed in each cycle, the biosensor chip was washed and regenerated with Glycine-HCl regeneration solution pH 1.5 (Cat. # BR-1003-54, GE). The running buffer for the assay was 1×HBS-EP buffer solution (Cat. # BR-1001-88, GE).
Background: In SPR one partner is held on a chip, and binding of the other changes the refractive index at the surface.
For the molecule B1, the Kd was found to be 1.71 nM, the koff is 0.0235 s⁻¹ and the kon was 1.38e+07 M⁻¹ s⁻¹.
Regarding B2, the Kd amounted to 0.0822 nM, the koff was 0.0101 s⁻¹ and the kon was determined as 1.23e+08 M⁻¹ s⁻¹.
Taken in the same sequence, the figures for B3 were 2.44 nM, 0.0339 s⁻¹ and 1.39e+07 M⁻¹ s⁻¹.
B4 returned a Kd of 2.42 nM, a koff of 0.0137 s⁻¹ and a kon of 5.66e+06 M⁻¹ s⁻¹.
For the molecule B5, the Kd was determined as 2.87 nM, the koff came out at 0.0225 s⁻¹ and the kon is 7.84e+06 M⁻¹ s⁻¹.
Consider B6, for which the Kd was 0.0202 nM, the koff stood at 0.000516 s⁻¹ and the kon was determined as 2.56e+07 M⁻¹ s⁻¹.
The corresponding values for B7 are 3.99 nM, 0.0211 s⁻¹ and 5.29e+06 M⁻¹ s⁻¹.
Taken in the same sequence, the figures for B8 were 1.23 nM, 0.0384 s⁻¹ and 3.12e+07 M⁻¹ s⁻¹.

Another assay concerns the target T2, human CTGF (antigen of the Biacore assays) (human, UniProt P29279 27-349).
T2 construct: also called antigen human CTGF; human CTGF protein
T2 sequence (looked up): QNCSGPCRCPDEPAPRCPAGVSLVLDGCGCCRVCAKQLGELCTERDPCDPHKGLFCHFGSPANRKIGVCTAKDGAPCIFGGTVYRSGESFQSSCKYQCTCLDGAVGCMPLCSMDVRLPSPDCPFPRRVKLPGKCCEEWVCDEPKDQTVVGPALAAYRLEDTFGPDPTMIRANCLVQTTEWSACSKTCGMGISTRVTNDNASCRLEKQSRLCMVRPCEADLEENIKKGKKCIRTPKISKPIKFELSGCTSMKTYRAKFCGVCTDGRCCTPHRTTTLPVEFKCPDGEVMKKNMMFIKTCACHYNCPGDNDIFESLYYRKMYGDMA
Kind of assay: Biacore, antibody captured on Protein A, CTGF in flow, 1:1 fit.
Excerpt: as §1
As to B1, the affinity, expressed as Kd, was 3.85 nM; the koff was found to be 0.0302 s⁻¹; the kon was 7.85e+06 M⁻¹ s⁻¹.
Taken in the same sequence, the figures for B2 were 0.133 nM, 0.00883 s⁻¹ and 6.62e+07 M⁻¹ s⁻¹.
Taken in the same sequence, the figures for B3 were 5.29 nM, 0.0408 s⁻¹ and 7.7e+06 M⁻¹ s⁻¹.
Taken in the same sequence, the figures for B4 were 5.74 nM, 0.0191 s⁻¹ and 3.32e+06 M⁻¹ s⁻¹.
B5 returned a Kd of 5.84 nM, a koff of 0.0326 s⁻¹ and a kon of 5.59e+06 M⁻¹ s⁻¹.
For the molecule B6, binding was put at a Kd of 0.0358 nM, the koff stood at 0.00102 s⁻¹ and the kon stood at 2.84e+07 M⁻¹ s⁻¹.
Taken in the same sequence, the figures for B7 were 7.39 nM, 0.0303 s⁻¹ and 4.09e+06 M⁻¹ s⁻¹.
The corresponding values for B8 are 0.466 nM, 0.00693 s⁻¹ and 1.49e+07 M⁻¹ s⁻¹.

A further assay concerns the target T3, human CTGF protein (R&D, Cat No. 9190-CC) (human, UniProt P29279 27-349).
T3 construct: Bought protein; also called CTGF recombinant protein; CTGF (R&D)
T3 sequence: T2 sequence (looked up) with H57D
Put plainly: ELISA, plate coated with CTGF (R&D 9190-CC). As for the experimental part:
The binding activity of anti-human CTGF antibody to human CTGF protein was tested by ELISA assay and Biacore. A 96-well microtiter plate was directly coated with the CTGF recombinant protein. The signal strength upon the addition of the antibody was used to determine the binding activity of the antibody to CTGF. The specific experimental procedures were as follows:
The CTGF protein (R&D, Cat No. 9190-CC) was diluted with PBS, pH 7.4 (Shanghai Yuanpei, Cat No. B320) buffer to a concentration of 0.2 μg/ml, 50 μl/well of which was added into the 96-well microtiter plate (Corning, Cat No. CLS3590-100EA), and incubated in an incubator at 37° C. for 2 hours or at 4° C. overnight (16-18 hours). The liquid was removed, 250 μl/ well blocking solution (5% skim milk (BD skim milk, Cat No.232100) diluted in PBS) was added, and incubated in an incubator at 37° C. for 3 hours or at 4° C. overnight (16-18 hours) for blocking. After the blocking was finished, the blocking solution was removed, the plate was washed for 5 times with PBST buffer (PBS containing 0.1% Tween-20, pH 7.4), 50 μl/well of various concentrations of each of the test antibodies (antibodies purified from hybridoma or humanized antibodies) diluted with sample dilution solution were added, and incubated in an incubator at 37° C. for 1 hours. After the incubation was finished, the plate was washed for 3 times with PBST, 50 μl/well of HRP-labeled goat anti-mouse secondary antibody (Jackson Immuno Research, Cat No. 115-035-003) or goat anti-human secondary antibody (Jackson Immuno Research, Cat No. 109-035-003) diluted with sample dilution solution was added, and incubated at 37° C. for 1 hour. The plate was washed for 3 times with PBST, 50 μl/well of TMB chromogenic substrate (KPL, Cat No. 52-00-03) was added, incubated at room temperature for 5-10min, and 50 μl/well of 1 M H₂SO₄ was added to stop the reaction. The absorbance value was read by a microplate reader (Molecular Devices, VERSA max) at a wavelength of 450 nm, and the data was analyzed with GraphPad Prism 5. The binding of CTGF antibody to human CTGF protein was calculated as EC50 value.
Molecule B6 gave an EC50 of 0.08 nM.

Another assay addresses T4, Cynomolgus CTGF-Fc (fusion protein of cynomolgus CTGF coding region with Fc) (cynomolgus).
T4 construct: also called cyno-CTGF-mFc protein; cyno-CTGF protein with Fc tag
Kind of assay: ELISA, cyno-CTGF-Fc captured by anti-mFc. As for the experimental part:
The binding activity of anti-monkey CTGF antibody to monkey CTGF protein was tested by ELISA assay. A 96-well microtiter plate was directly coated with anti-mFc protein, and then the cyno-CTGF protein with Fc tag was bound to the plate, and then the antibody was added. The signal strength upon the addition of the antibody was used to determine the binding activity of the antibody to cyno-CTGF. The specific experimental procedures were as follows:
The anti-mFc Protein (Sigma, Cat No. M4280) was diluted with PBS, pH 7.4 (Shanghai Yuanpei, Cat No. B320) buffer to a concentration of 2 μg/ml, which was added into the 96-well microtiter plate (Corning, Cat No. CLS3590-100EA) at 50 μl/well, and incubated in an incubator at 37° C. for 2 hours. The liquid was removed, 250 μl/well blocking solution (5% skim milk (BD skim milk, Cat No.232100) diluted in PBS) was added, and incubated in an incubator at 37° C. for 3 hours or at 4° C. overnight (16-18 hours) for blocking. After the blocking was finished, the blocking solution was removed, the plate was washed for 3 times with PBST buffer (PBS containing 0.1% Tween-20, pH 7.4), 50 μl of 1 μg/ml cyno-CTGF-mFc protein was added into each well, incubated in an incubator at 37° C. for 1 hour, and then the plate was washed for 3 times with PBST buffer (PBS containing 0.1% Tween-20, pH 7.4). 50 μl/well of various concentrations of each of the test antibodies (antibodies purified from hybridoma or humanized antibodies) diluted with sample dilution solution were added, and incubated in an incubator at 37° C. for 1 hours. After the incubation was finished, the plate was washed for 3 times with PBST, 50 μl/well of HRP-labeled goat anti-mouse secondary antibody (Jackson Immuno Research, Cat No. 115-035-003) or goat anti-human secondary antibody (Jackson Immuno Research, Cat No. 109-035-003) diluted with sample dilution solution was added, and incubated at 37° C. for 1 hour. The plate was washed for 5 times with PBST, 50 μl/well of TMB chromogenic substrate (KPL, Cat No. 52-00-03) was added, incubated at room temperature for 5-10 min, and 50 μl/well of 1 M H₂SO₄ was added to stop the reaction. The absorbance value was read by a microplate reader (Molecular Devices, VERSA max) at a wavelength of 450 nm, and the data was analyzed with GraphPad Prism 5. The binding of CTGF antibody to cyno CTGF protein was calculated as EC50 value.
In general terms: An ELISA detects its analyte on a solid surface through an enzyme-linked reagent.
B6: the EC50 worked out at 0.059 nM.

As a reminder, the Kd is the free concentration of one partner at which half of the binding sites on the other are occupied at equilibrium, for simple one-to-one binding. Read a high Kd as weaker binding. As usually defined, the koff is the first-order rate constant of dissociation. Lower therefore signals a long-lived complex. One may read the kon as the rate constant with which the complex forms. A word on the EC50: it is the concentration needed to bring the measured effect to its halfway point. The low end stands for an effect from little substance, the high end for a need for much substance.
